Results as given in patent publication US20110256172A1.

Molecular target: Bacillus anthracis protective antigen (PA83, List Biological Laboratories) (Bacillus anthracis) (UniProt P13423)
Assay: cell-based or functional assay

UniProt P13423, sequence (P13423 30-764): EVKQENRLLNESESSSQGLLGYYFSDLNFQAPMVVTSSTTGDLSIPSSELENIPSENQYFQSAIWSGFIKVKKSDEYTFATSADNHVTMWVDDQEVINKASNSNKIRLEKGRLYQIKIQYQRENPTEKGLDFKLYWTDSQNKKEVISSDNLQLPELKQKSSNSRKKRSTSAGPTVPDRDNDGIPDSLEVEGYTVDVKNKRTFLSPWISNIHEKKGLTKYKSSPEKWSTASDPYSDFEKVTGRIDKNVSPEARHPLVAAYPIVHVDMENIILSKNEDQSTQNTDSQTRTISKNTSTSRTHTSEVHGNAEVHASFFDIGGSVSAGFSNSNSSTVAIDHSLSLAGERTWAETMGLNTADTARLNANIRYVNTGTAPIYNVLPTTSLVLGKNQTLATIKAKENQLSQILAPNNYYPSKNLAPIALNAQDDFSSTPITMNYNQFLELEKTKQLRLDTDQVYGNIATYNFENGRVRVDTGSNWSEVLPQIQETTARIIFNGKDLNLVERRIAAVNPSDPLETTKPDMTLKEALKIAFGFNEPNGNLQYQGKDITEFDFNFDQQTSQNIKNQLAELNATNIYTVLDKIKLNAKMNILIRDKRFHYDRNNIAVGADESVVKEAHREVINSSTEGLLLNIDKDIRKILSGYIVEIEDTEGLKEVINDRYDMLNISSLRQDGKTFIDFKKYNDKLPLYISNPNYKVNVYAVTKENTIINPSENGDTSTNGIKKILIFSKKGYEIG

Substance	peak neutralization titer (TNA) (fold over the control PA antiserum)
Sera of the three rabbits immunized with MAP304 (four copies of P30-PA 304-319)	23
Sera of the three rabbits immunized with MAP305 (four copies of P30-PA 305-319)	19
